Test results from PMC10425327.

Molecular target: T1, complement C5a receptor (mouse (endogenous in Peyer's patch LysoDCs)) (UniProt P30993)
T1 sequence: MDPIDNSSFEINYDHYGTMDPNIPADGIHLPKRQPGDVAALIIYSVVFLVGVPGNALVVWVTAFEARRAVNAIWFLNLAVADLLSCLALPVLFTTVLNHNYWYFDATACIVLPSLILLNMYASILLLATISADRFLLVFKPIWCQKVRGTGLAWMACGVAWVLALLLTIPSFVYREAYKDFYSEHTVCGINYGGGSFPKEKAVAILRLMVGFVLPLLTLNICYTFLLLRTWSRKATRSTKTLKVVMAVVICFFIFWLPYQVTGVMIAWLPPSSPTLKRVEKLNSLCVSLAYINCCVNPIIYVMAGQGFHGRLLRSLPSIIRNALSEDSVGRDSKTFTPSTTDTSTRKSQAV

B1: Co1 peptide (peptide)
peptide: SFHQLPARSPLP
- CCL2 (MCP-1) in the culture supernatant of C5aR+ LysoDCs treated with Co1 peptide (10 uM, 24 h), against untreated C5aR+ LysoDCs and Co1-treated C5aR- LysoDCs: > 2 fold
- CCL3 (MIP-1alpha) in the culture supernatant of C5aR+ LysoDCs treated with Co1 peptide (10 uM, 24 h), against untreated C5aR+ LysoDCs and Co1-treated C5aR- LysoDCs: > 2 fold
